Measured values as given in US20170166621A1.

Target: GLP-1 receptor (UniProt P43220)
Test: cell-based or functional assay

Chain of GLP-1 receptor (P43220 24-463 limits assumed): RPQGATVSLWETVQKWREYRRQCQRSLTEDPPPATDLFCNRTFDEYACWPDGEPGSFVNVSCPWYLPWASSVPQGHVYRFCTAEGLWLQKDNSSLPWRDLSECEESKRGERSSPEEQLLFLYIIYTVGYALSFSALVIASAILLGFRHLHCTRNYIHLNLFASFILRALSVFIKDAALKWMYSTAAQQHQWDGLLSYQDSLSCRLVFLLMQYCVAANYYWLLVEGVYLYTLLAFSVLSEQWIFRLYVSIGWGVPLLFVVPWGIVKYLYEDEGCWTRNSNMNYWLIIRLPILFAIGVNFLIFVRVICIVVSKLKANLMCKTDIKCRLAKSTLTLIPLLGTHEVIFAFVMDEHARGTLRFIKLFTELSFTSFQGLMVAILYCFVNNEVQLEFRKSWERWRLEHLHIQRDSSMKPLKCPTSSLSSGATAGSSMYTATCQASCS

Q: Which results are given for Exendin-4 (peptide)?
A: cAMP EC50 (fold-Ex-4); GLP-1R only cells: 1 fold; cAMP EC50 (fold-Ex-4); GLP-1R/FGFR1c/beta-klotho cells: 1 fold; cAMP EC50 (nM); GLP-1R only cells: 11 nM; cAMP EC50 (nM); GLP-1R/FGFR1c/beta-klotho cells: 6 nM; cAMP y-max (% Ex-4); GLP-1R only cells: 100%; cAMP y-max (% Ex-4); GLP-1R/FGFR1c/beta-klotho cells: 100%
